In US20090123371A1:

Biological target: EphA2 receptor tyrosine kinase (human) (UniProt P29317)
Assay: cell-based or functional assay

Substance: DT390-ephrinA1 (from UniProt P00588 33-422)
- cell proliferation assay, U-251 MG GBM cells: 15 nM
